# Numbered stars: 1 amine (or outer) side, 2 acyl side, 3 side chain; on linkers, the order of the positions; unused ones are H or OH. Bridge positions count the residues as written; N and C are the ends. Square brackets hold non-standard residues; d marks the D form. Ends that are not written are not given here. CH2(3,3'-bipyridine-6,6')CH2 = c1cc(C[*:1])ncc1-c1ccc(C[*:2])nc1; Biphenyl(4,4'-CH2)2 = c1cc(-c2ccc(C[*:2])cc2)ccc1C[*:1]
# T1: GST-MDMX containing full-length human MDMX (human, UniProt O15151 1-490)
# T1 construct: mature; MDMX', expressed in E. coli as a GST fusion; 'mature' stands for full-length; not shown: GST tag
# T1 sequence (looked up): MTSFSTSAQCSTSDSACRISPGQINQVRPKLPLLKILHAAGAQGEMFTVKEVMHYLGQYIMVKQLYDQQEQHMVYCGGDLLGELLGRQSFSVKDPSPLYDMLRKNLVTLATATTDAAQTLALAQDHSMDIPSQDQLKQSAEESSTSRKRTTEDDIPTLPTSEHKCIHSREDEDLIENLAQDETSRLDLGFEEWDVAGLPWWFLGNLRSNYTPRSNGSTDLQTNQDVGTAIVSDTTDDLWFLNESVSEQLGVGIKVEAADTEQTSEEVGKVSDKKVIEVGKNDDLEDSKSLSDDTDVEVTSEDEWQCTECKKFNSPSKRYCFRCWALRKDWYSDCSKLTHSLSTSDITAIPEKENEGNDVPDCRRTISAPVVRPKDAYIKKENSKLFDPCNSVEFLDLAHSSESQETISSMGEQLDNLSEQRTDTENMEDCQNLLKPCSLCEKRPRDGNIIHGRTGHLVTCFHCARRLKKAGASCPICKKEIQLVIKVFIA
# B1: Cross-linked Noxa peptide 5a (Bph, L,L-cysteines at 77/84) (peptide)
# peptide: AAXLRRIGDXVNLRQKLLN
# modifications: Cys 3 and Cys 10 of the peptide (NoxaB 77 and 84) cross-linked by Bph; N-terminal acetyl; C-terminal amide
# B2: Cross-linked Noxa peptide 6a (Bph, D-Cys 77 / L-Cys 84) (peptide)
# peptide: AAXLRRIGDXVNLRQKLLN
# modifications: D-cysteine at position 3; D-Cys 3 and L-Cys 10 cross-linked by Bph; N-terminal acetyl; C-terminal amide
# B3: PDI analog 3b (Bpy cross-linked D,L-dicysteine peptide) (peptide)
# peptide: Ac-LTF[dC]HYWAQLCS-NH2
# modifications: linker 4-11 via CH2(3,3'-bipyridine-6,6')CH2
# SMILES: CC(=O)N[C@@H](CC(C)C)C(=O)N[C@H](C(=O)N[C@@H](Cc1ccccc1)C(=O)N[C@@H]1CSCc2ccc(cn2)-c2ccc(nc2)CSC[C@@H](C(=O)N[C@@H](CO)C(N)=O)NC(=O)[C@H](CC(C)C)NC(=O)[C@H](CCC(N)=O)NC(=O)[C@H](C)NC(=O)[C@H](Cc2c[nH]c3ccccc23)NC(=O)[C@H](Cc2ccc(O)cc2)NC(=O)[C@H](Cc2c[nH]cn2)NC1=O)[C@@H](C)O
# notes: Printed as LTFc"HYWAQLC"S
# B4: PDI analog 3a (Bph cross-linked D,L-dicysteine peptide) (peptide)
# peptide: Ac-LTF[dC]HYWAQLCS-NH2
# modifications: linker 4-11 via Biphenyl(4,4'-CH2)2
# SMILES: CC(=O)N[C@@H](CC(C)C)C(=O)N[C@H](C(=O)N[C@@H](Cc1ccccc1)C(=O)N[C@@H]1CSCc2ccc(cc2)-c2ccc(cc2)CSC[C@@H](C(=O)N[C@@H](CO)C(N)=O)NC(=O)[C@H](CC(C)C)NC(=O)[C@H](CCC(N)=O)NC(=O)[C@H](C)NC(=O)[C@H](Cc2c[nH]c3ccccc23)NC(=O)[C@H](Cc2ccc(O)cc2)NC(=O)[C@H](Cc2c[nH]cn2)NC1=O)[C@@H](C)O
# notes: Printed as LTFc'HYWAQLC'S
# B5: Cross-linked Noxa peptide 7a (Bph, L,L-cysteines at 80/87) (peptide)
# peptide: Ac-AAQLRCIGDKVNCRQKLLN-NH2
# modifications: linker 6-13 via Biphenyl(4,4'-CH2)2
# SMILES: CC[C@H](C)[C@@H]1NC(=O)[C@@H](NC(=O)[C@H](CCCNC(=N)N)NC(=O)[C@H](CC(C)C)NC(=O)[C@H](CCC(N)=O)NC(=O)[C@H](C)NC(=O)[C@H](C)NC(C)=O)CSCc2ccc(cc2)-c2ccc(cc2)CSC[C@@H](C(=O)N[C@@H](CCCNC(=N)N)C(=O)N[C@@H](CCC(N)=O)C(=O)N[C@@H](CCCCN)C(=O)N[C@@H](CC(C)C)C(=O)N[C@@H](CC(C)C)C(=O)N[C@@H](CC(N)=O)C(N)=O)NC(=O)[C@H](CC(N)=O)NC(=O)[C@H](C(C)C)NC(=O)[C@H](CCCCN)NC(=O)[C@H](CC(=O)O)NC(=O)CNC1=O
# notes: Printed as AAQLRC'IGDKVNC'RQKLLN
# B6: Cross-linked Noxa peptide 5b (Bpy, L,L-cysteines at 77/84) (peptide)
# peptide: AAXLRRIGDXVNLRQKLLN
# modifications: Cys 3 and Cys 10 of the peptide (NoxaB 77 and 84) cross-linked by Bpy; N-terminal acetyl; C-terminal amide
# B7: Cross-linked Noxa peptide 6b (Bpy, D-Cys 77 / L-Cys 84) (peptide)
# peptide: AAXLRRIGDXVNLRQKLLN
# modifications: D-cysteine at position 3; D-Cys 3 and L-Cys 10 cross-linked by Bpy; N-terminal acetyl; C-terminal amide
# B8: Cross-linked Noxa peptide 8a (Bph, alpha-methyl-L-cysteines at 77/84) (peptide)
# peptide: AAXLRRIGDXVNLRQKLLN
# modifications: alpha-methyl-L-cysteine at positions 3 and 10, cross-linked by Bph; N-terminal acetyl; C-terminal amide
# B9: PDI analog 2b (Bpy cross-linked, two arginines) (peptide)
# peptide: Ac-LTFCRYWARLCS-NH2
# modifications: linker 4-11 via CH2(3,3'-bipyridine-6,6')CH2
# SMILES: CC(=O)N[C@@H](CC(C)C)C(=O)N[C@H](C(=O)N[C@@H](Cc1ccccc1)C(=O)N[C@H]1CSCc2ccc(cn2)-c2ccc(nc2)CSC[C@@H](C(=O)N[C@@H](CO)C(N)=O)NC(=O)[C@H](CC(C)C)NC(=O)[C@H](CCCNC(=N)N)NC(=O)[C@H](C)NC(=O)[C@H](Cc2c[nH]c3ccccc23)NC(=O)[C@H](Cc2ccc(O)cc2)NC(=O)[C@H](CCCNC(=N)N)NC1=O)[C@@H](C)O
# notes: Printed as LTFC"RYWARLC"S
# B10: PDI analog 3 (linear (D,L)-dicysteine peptide) (peptide)
# peptide: LTF[dC]HYWAQLCS-NH2
# modifications: not fully specified (N-terminus); printed as LTFcHYWAQLCS; cysteine pairing not given here
# notes: not cross-linked; also called peptide 3
# B11: PDI analog 1b (Bpy cross-linked L,L-dicysteine peptide) (peptide)
# peptide: Ac-LTFCHYWAQLCS-NH2
# modifications: linker 4-11 via CH2(3,3'-bipyridine-6,6')CH2
# SMILES: CC(=O)N[C@@H](CC(C)C)C(=O)N[C@H](C(=O)N[C@@H](Cc1ccccc1)C(=O)N[C@H]1CSCc2ccc(cn2)-c2ccc(nc2)CSC[C@@H](C(=O)N[C@@H](CO)C(N)=O)NC(=O)[C@H](CC(C)C)NC(=O)[C@H](CCC(N)=O)NC(=O)[C@H](C)NC(=O)[C@H](Cc2c[nH]c3ccccc23)NC(=O)[C@H](Cc2ccc(O)cc2)NC(=O)[C@H](Cc2c[nH]cn2)NC1=O)[C@@H](C)O
# notes: Printed as LTFC"HYWAQLC"S (C" = Bpy-linked cysteine)
# B12: PDI analog 1a (Bph cross-linked L,L-dicysteine peptide) (peptide)
# peptide: Ac-LTFCHYWAQLCS-NH2
# modifications: linker 4-11 via Biphenyl(4,4'-CH2)2
# notes: Printed as LTFC'HYWAQLC'S (C' = Bph-linked cysteine)
# B13: PDI analog 4b (Bpy cross-linked D,L-dicysteine peptide, two arginines) (peptide)
# peptide: Ac-LTF[dC]RYWARLCS-NH2
# modifications: linker 4-11 via CH2(3,3'-bipyridine-6,6')CH2
# SMILES: CC(=O)N[C@@H](CC(C)C)C(=O)N[C@H](C(=O)N[C@@H](Cc1ccccc1)C(=O)N[C@@H]1CSCc2ccc(cn2)-c2ccc(nc2)CSC[C@@H](C(=O)N[C@@H](CO)C(N)=O)NC(=O)[C@H](CC(C)C)NC(=O)[C@H](CCCNC(=N)N)NC(=O)[C@H](C)NC(=O)[C@H](Cc2c[nH]c3ccccc23)NC(=O)[C@H](Cc2ccc(O)cc2)NC(=O)[C@H](CCCNC(=N)N)NC1=O)[C@@H](C)O
# notes: Printed as LTFc"RYWARLC"S
# B14: Fluorescein-labeled cross-linked Noxa peptide 6a (peptide)
# peptide: AAXLRRIGDXVNLRQKLLN
# modifications: N-terminal FITC-Ahx; D-cysteine at position 3; D-Cys 3 and L-Cys 10 cross-linked by Bph; C-terminal amide
# notes: also called Fl-6a; Fluo-6a
# Target: GST-Mcl-1
# Sequence (Q07820 whole entry): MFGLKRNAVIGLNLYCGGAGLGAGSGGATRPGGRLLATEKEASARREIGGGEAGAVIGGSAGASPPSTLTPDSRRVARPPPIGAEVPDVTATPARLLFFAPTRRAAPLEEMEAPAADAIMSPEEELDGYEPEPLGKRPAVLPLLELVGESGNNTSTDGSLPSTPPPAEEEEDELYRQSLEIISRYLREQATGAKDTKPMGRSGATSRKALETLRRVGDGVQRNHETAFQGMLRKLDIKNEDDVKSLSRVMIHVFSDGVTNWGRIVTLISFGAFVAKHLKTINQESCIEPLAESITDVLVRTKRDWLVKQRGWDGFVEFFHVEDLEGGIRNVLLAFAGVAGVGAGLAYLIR
# Assay: competitive FP assay, against the parent linear peptide
row,Binder,fold increase in activity
1,B1,67 fold
2,B2,37 fold

# Target: T1, GST-MDMX containing full-length human …
# Assay: competition ELISA, against linear peptide 3
row,Binder,fold increase in MDMX activity
1,B3,24 fold
2,B4,15 fold

# Target: GST-Mcl-1
# Assay: competitive FP assay: displacement of fluorescein-labeled Bak from GST-Mcl-1
row,Binder,IC50
1,B5,32 nM
2,B6,45 nM
3,B7,140 nM
4,B1,18 nM
5,B2,73 nM
6,B8,230 nM

# Target: T1, GST-MDMX containing full-length human …
# Assay: competition ELISA: peptide inhibits GST-MDMX binding to coated His6-p53
row,Binder,IC50
1,"Ac-LTF[dC]RYWARLCS-NH2 (linker 4-11 via Biphenyl(4,4'-CH2)2, Printed as LTFc'RYWARLC'S) [PDI analog 4a (Bph cross-linked D,L-dicysteine peptide, two arginines)]",4490 nM
2,B9,1520 nM
3,B10,339 nM
4,B11,890 nM
5,B12,4810 nM
6,B13,1150 nM
7,"Ac-LTFCRYWARLCS-NH2 (linker 4-11 via Biphenyl(4,4'-CH2)2, Printed as LTFC'RYWARLC'S) [PDI analog 2a (Bph cross-linked, two arginines)]",5520 nM
8,B3,14 nM
9,"Ac-LTFCHYWAQLCS-NH2 (cysteine pairing not given here, not cross-linked; also called peptide 1) [PDI analog 1 (linear L,L-dicysteine peptide)]",1850 nM
10,B4,22 nM

# Target: GST-Mcl-1
# Assay: ELISA; the upper end is tied to 5b by Table 3 (25 nM against 340 nM)
row,Binder,fold improvement over the parent peptide
1,B6,14 fold

# Target: T2, GST-MDM2 containing full-length human MDM2 (human, UniProt Q00987 1-491)
# T2 construct: mature; 'mature' stands for full-length; not shown: GST tag
# T2 sequence (Q00987 whole entry): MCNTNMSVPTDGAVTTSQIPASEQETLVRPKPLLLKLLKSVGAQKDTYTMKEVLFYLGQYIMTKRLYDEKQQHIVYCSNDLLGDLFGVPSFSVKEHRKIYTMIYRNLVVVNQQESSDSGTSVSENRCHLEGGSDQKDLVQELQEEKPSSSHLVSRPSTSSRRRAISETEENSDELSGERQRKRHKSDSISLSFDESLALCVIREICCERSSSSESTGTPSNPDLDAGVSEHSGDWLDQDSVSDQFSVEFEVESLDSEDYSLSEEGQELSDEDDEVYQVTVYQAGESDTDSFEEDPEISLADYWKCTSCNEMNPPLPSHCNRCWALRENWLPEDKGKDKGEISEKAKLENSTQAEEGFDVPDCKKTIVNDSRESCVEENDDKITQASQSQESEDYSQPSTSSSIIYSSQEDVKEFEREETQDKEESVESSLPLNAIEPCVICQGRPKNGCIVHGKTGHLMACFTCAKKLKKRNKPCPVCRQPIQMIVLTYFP
# Assay: competition ELISA; reference not named in the sentence (peptide 1 or PDI)
row,Binder,fold increase in MDM2 activity
1,B10,> 3 fold

# Target: GST-Bcl-xL
# Sequence (Q07817 whole entry): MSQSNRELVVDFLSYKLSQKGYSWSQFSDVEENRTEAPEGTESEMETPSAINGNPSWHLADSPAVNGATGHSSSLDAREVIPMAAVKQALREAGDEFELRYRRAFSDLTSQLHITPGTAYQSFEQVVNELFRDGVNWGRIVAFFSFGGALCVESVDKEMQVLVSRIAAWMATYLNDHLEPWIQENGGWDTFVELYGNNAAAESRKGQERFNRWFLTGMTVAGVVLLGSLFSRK
# Assay: fluorescence polarization assay, labeled peptide on GST-Bcl-xL
row,Binder,Kd
1,"AAXLRRIGDXVNLRQKLLN (N-terminal FITC-Ahx; Cys 3 and Cys 10 cross-linked by Bph; C-terminal amide, also called Fl-5a; Fluo-5a) [Fluorescein-labeled cross-linked Noxa peptide 5a]",> 2000 nM
2,B14,> 2000 nM

# Target: GST-Mcl-1
# Assay: fluorescence polarization assay, Mcl-1 against Bcl-xL
row,Binder,fold selectivity for Mcl-1 over Bcl-xL
1,"AAXLRRIGDXVNLRQKLLN (N-terminal FITC-Ahx; Cys 3 and Cys 10 cross-linked by Bph; C-terminal amide, also called Fl-5a; Fluo-5a) [Fluorescein-labeled cross-linked Noxa peptide 5a]",> 2000 fold
2,B14,> 2000 fold

# Target: T2, GST-MDM2 containing full-length human …
# Assay: competition ELISA: peptide inhibits GST-MDM2 binding to coated His6-p53
row,Binder,IC50
1,"Ac-LTF[dC]RYWARLCS-NH2 (linker 4-11 via Biphenyl(4,4'-CH2)2, Printed as LTFc'RYWARLC'S) [PDI analog 4a (Bph cross-linked D,L-dicysteine peptide, two arginines)]",208 nM
2,B10,13 nM
3,B11,35 nM
4,B12,39 nM
5,"Ac-LTFCRYWARLCS-NH2 (linker 4-11 via Biphenyl(4,4'-CH2)2, Printed as LTFC'RYWARLC'S) [PDI analog 2a (Bph cross-linked, two arginines)]",244 nM
6,B3,5.4 nM
7,"Ac-LTFCHYWAQLCS-NH2 (cysteine pairing not given here, not cross-linked; also called peptide 1) [PDI analog 1 (linear L,L-dicysteine peptide)]",57 nM
8,B4,8.3 nM

# Target: GST-Mcl-1
# Assay: ELISA (format not described; target taken to be Mcl-1)
row,Binder,IC50
1,B5,37 nM
2,B6,25 nM
3,B7,140 nM
4,B1,75 nM
5,B2,260 nM

# Target: GST-Mcl-1
# Assay: fluorescence polarization assay, labeled peptide on GST-Mcl-1
row,Binder,Kd
1,"AAXLRRIGDXVNLRQKLLN (N-terminal FITC-Ahx; Cys 3 and Cys 10 cross-linked by Bph; C-terminal amide, also called Fl-5a; Fluo-5a) [Fluorescein-labeled cross-linked Noxa peptide 5a]",0.8 nM
2,B14,0.7 nM
